Data on three molecules can be found in US20040209289A1 (IMMUNEX, published 2004).

Holding throughout (test): FACS staining of transfected 293 cells with Fc fusion protein, labeled anti-human IgG Fc detection
The target in assay [1] is T1, mCD28-huFC (extracellular region of murine CD28 fused to a human Fc region from an IgG1 antibody) (murine; human, UniProt P31041 20-150; P01857 100-330 = IgG part).
T1 construct: extracellular domain;domain: Fc region; Bought from R & D Systems
The method, then:
(§1) Full length versions of each of three murine cDNAs (encoding BTL-II, B7RP-1, CD80) were inserted into a vector appropriate for expression. About 10 μg of each of these constructs, along with an empty vector, were used separately to transfect 293 cells. Two days post transfection, about one million cells from each of the four transfections were stained with each of the fusion proteins described above. Bound protein was detected using a fluorescently labeled antibody against the human IgG Fc region. The stained cells were analyzed by FACS.

Assay [2] concerns the target T2, CTLA4-huFC (extracellular region of murine CTLA4 fused to a human Fc region of an IgG1 antibody) (murine; human, UniProt P09793 36-161; P01857 99-330 = IgG part, limits assumed).
T2 construct: extracellular domain;domain: Fc region; Made in transfected cells and purified by Protein A chromatography
The method, then:
as §1

The target of assay [3] is T3, ICOS-huFC (extracellular region of murine ICOS fused to a human Fc region from an IgG1 antibody) (murine; human, UniProt Q9WVS0 21-144; P01857 99-330 = IgG part, limits assumed).
T3 construct: extracellular domain;domain: Fc region; Made in transfected cells and purified by Protein A chromatography
On the procedure:
as §1

Assay [4] has as its target T4, PD1-huFC (extracellular region of murine PD-1 fused to a human Fc region of an IgG1 antibody) (murine; human, UniProt Q02242 25-169; P01857 100-330 = IgG part).
T4 construct: extracellular domain;domain: Fc region; Bought from R & D Systems
The method, then:
as §1

T2 sequence (P09793 other isoform, or with tags, fused parts or gaps limits assumed): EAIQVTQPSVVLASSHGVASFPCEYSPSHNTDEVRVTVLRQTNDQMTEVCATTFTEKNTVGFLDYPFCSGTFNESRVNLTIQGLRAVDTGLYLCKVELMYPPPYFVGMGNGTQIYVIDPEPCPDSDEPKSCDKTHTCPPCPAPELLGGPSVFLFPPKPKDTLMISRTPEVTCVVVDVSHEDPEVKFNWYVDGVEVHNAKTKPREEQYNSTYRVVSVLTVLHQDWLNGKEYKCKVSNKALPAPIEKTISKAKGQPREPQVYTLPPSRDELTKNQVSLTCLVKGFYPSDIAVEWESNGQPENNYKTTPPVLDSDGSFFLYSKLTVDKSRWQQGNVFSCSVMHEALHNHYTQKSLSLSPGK
T3 sequence (Q9WVS0 other isoform, or with tags, fused parts or gaps limits assumed): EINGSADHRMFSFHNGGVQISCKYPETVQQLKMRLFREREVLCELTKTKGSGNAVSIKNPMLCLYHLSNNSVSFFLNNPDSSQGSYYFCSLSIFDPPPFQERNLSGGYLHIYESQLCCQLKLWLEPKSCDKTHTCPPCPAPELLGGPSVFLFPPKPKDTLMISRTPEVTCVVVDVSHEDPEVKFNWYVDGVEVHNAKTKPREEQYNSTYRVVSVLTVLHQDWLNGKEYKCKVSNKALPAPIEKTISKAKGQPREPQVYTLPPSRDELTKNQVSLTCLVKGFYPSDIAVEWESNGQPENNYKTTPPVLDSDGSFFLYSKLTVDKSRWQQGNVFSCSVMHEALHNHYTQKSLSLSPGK
T4 sequence (Q02242 other isoform, or with tags, fused parts or gaps limits assumed): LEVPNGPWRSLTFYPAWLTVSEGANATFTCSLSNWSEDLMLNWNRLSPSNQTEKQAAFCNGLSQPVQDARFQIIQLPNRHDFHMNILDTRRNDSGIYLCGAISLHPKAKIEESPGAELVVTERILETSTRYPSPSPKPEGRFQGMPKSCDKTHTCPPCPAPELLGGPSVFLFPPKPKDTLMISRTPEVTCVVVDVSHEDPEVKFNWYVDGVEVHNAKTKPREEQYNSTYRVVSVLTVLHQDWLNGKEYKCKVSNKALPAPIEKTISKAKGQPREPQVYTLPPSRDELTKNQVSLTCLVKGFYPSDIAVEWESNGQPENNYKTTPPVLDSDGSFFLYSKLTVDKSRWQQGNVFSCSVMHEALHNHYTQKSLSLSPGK
T1 sequence (P31041 other isoform, or with tags, fused parts or gaps limits assumed): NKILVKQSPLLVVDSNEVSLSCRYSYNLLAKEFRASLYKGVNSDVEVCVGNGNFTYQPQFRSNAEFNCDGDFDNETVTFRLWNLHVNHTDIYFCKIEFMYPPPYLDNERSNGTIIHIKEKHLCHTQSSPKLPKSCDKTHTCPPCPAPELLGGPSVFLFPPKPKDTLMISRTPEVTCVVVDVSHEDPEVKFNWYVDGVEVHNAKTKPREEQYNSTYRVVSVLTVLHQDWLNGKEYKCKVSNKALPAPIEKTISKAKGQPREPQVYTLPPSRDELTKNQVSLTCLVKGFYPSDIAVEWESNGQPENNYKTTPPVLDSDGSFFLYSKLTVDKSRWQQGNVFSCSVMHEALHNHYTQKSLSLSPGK

B1: murine B7RP-1 (full length, expressed on transfected 293 cells) (ligand, UniProt Q9JHJ8 44-322, looked up)
chain: ASAETEVGAMVGSNVVLSCIDPHRRHFNLSGLYVYWQIENPEVSVTYYLPYKSPGINVDSSYKNRGHLSLDSMKQGNFSLYLKNVTPQDTQEFTCRVFMNTATELVKILEEVVRLRVAANFSTPVISTSDSSNPGQERTYTCMSKNGYPEPNLYWINTTDNSLIDTALQNNTVYLNKLGLYDVISTLRLPWTSRGDVLCCVENVALHQNITSISQAESFTGNNTKNPQETHNNELKVLVPVLAVLAAAAFVSFIIYRRTRPHRSYTGPKTVQLELTDHA
notes: whole, on cells; also called B7h; B7-H2
Take B1: the binding result is “no binding” in assay [1], “no binding” in assay [2], “binds” in assay [3] and “no binding” in assay [4].

B2: murine CD80 (full length, expressed on transfected 293 cells) (ligand, UniProt Q00609 38-306, looked up)
chain: VDEQLSKSVKDKVLLPCRYNSPHEDESEDRIYWQKHDKVVLSVIAGKLKVWPEYKNRTLYDNTTYSLIILGLVLSDRGTYSCVVQKKERGTYEVKHLALVKLSIKADFSTPNITESGNPSADTKRITCFASGGFPKPRFSWLENGRELPGINTTISQDPESELYTISSQLDFNTTRNHTIKCLIKYGDAHVSEDFTWEKPPEDPPDSKNTLVLFGAGFGAVITVVVIVVIIKCFCKHRSCFRRNEASRETNNSLTFGPEEALAEQTVFL
notes: whole, on cells; also called B7-1
As to B2, the binding result in assay [1] is recorded as “binds”; in assay [2], “binds”; in assay [3] it was “no binding”; in assay [4], “no binding”.

B3: murine BTL-II (full length, expressed on transfected 293 cells) (ligand)
chain: FRVVGPNLPILAKVGEDALLTCQLLPKRTTAHMEVRWYRSDPAMPVIMYRDGAVVTGLPMEGYGGRAEWMEDSTEEGSVALKIRQVQPSDDGQYWCRFQEGDYWRETSVLLQVAALGSSPNIHVEGLGEGEVQLVCTSRGWFPEPEVHWEGIWGEKLMSFSENHVPGEDGLFYVEDTLMVRNDSVETISCFIYSHGLRETQEATIALSERLQTELVSVSVIGHSQPSPVQVGENIELTCHLSPQTDAQNLEVRWLRSRYYPAVHVYANGTHVAGEQMVEYKGRTSLVTDAIHEGKLTLQIHNARTSDEGQYRCLFGKDGVYQEARVDVQVTAVGSTPRITREVLKDGGMQLRCTSDGWFPRPHVQWRDRDGKTMPSFSEAFQQGSQELFQVETLLLVTNGSMVNVTCSISLPLGQEKTARFPLSDSKIALLWMTLPVVVLPLAMAMDLIKVKRRRRTNEQTHSSNQENNKNDENHRRRLPSDERLR
Turning to B3, the binding result in assay [1], in assay [2], in assay [3] and in assay [4] was “no binding” throughout.
